Earlier results in patent US20260217837A1, “FGFR3 BINDING MOLECULES AND METHODS OF USE THEREOF” (Regeneron Pharmaceuticals, Inc., priority 2023, published 2026).
Like-named read-outs stand apart in the source and are kept apart here.

B1: FGA0002: anti-FGFR3 (S249C mutant) antibody of WO 2021/010326 A1; SEQ ID NO: 84/85 (antibody, V domains shown)
VH: QELVESGGGLVQPGGSLKLSCKASGIDFSSYGISWVRQAPGKGLEWIAYIVPGFGIRNYANSVKGRFTISSDNAQNTVFLQMTSLTASDTATYFCARVPQYASSSGYYLPFNLWGPGTLVTVSS
VL: ALVMTQTPSPVSAAVGGTVTINCQASEDIYYNLAWFQQKPGQPPKLLIYRASTLASGVPSRFSGSGSGTEFTLTISDVQCDDAATYYCLGVYTYISADGNAFGGGTEVVVK
B2: VH: SEQ ID NO: 7 of PCT Publication No: WO 2010/048026 A2: unnamed anti-FGFR3 Ig-like domain 2 antibody, VH SEQ ID NO: 7 / VL SEQ ID NO: 8 of WO 2010/048026 A2; SEQ ID NO: 61/62 (antibody, V domains shown)
VH: EVQLVQSGAEVKKPGASVKVSCKASGYMFTSYGISWVRQAPGQGLEWMGWVSTYNGDTNYAQKFQGRVTVTTDTSTSTAYMELRSLRSEDTAVYYCARVLGYYDSIDGYYYGMDVWGQGTTVTVSS
VL: QSVLTQPPSLSVAPGKTATFTCGGNNIGDKSVHWYRQKPGQAPVLVMYLDTERPSGIPERMSGSNFGNTATLTITRVEAEDEADYYCQVWDSGSDHVVFGGGTKLTVLG
B3: KE35: anti-FGFR3 IIIb and IIIc antibody of WO 2022/040560 A1; SEQ ID NO: 74/75 (antibody, V domains shown)
VH: EVQLQQSGPELVKPGASVKMSCKASGYTFTDYNMHWVKQSHGKSLEWIGYINPNNGGTRYNQKFKGKATLTVNKSSSTAYMELRSLTSEDSAVYYCARERDYDGAMDYWGQGTSVTVSS
VL: DIQMTQSPSSLSASLGGKVTITCKASQDINKFIAWYQHKPGKGPRLLIHYTSTLQPGIPSRFSGSGSGRDYSFSISNLEPEDIATYYCLQYDNLLWTFGGGTKLEIK
B4: KE42: anti-FGFR3 IIIb and IIIc antibody of WO 2022/040560 A1; SEQ ID NO: 76/77 (antibody, V domains shown)
VH: EVQLQQSGPELVKPGASVKMSCKASGYTFTDYNMHWVKQSHGKSLQWIGYINPNNGGTNYNQNFKDKATLTVNKSSTTAYMELRSLTSEDSAVYYCARERDYDGSMDFWGQGTSVTVSS
VL: DIQMTQSPSSLSASLGGKVTITCKASQDINKFIAWYQHKPGKGPRLLIHYTSTLQPGIPSRFSGSGSGRDYSFSISNLEPEDIATYFCLQYDNLLWTFGGGTKLEIK
B5: MS-Pro-59: anti-FGFR3 Ig-like domain 3 antibody of WO 2002/102972 A2; SEQ ID NO: 28/29 (antibody, V domains shown)
VH: QVQLQQSGPGLVKPSQTLSLTCAISGDSVSSNSAAWNWIRQSPGRGLEWLGRTYYRSKWYNDYAVSVKSRITINDTSKNQFSLQLNSVTPEDTAVYYCARSYYPDFDYWGQGTVTVSS
VL: DIELTQPPSVSVAPGQTARISCSGDALGDKYASWYQQKPGQAPVLVIYDDSDRPSGIPERFSGSNSGNTATLTISGTQAEDEADYYCQSYDGPDLWVFGGGTKLTVLGQ
B6: 184.6.1.N54S: anti-FGFR3 Ig-like domain 3 antibody of WO 2010/111367 A1; SEQ ID NO: 63/64 (antibody, V domains shown)
VH: EVQLVESGGGLVQPGGSLRLSCAASGFTFTSTGISWVRQAPGKGLEWVGRIYPTSGSTNYADSVKGRFTISADTSKNTAYLQMNSLRAEDTAVYYCARARTYGIYDLYVDYTEYVMDYWGQGTLV
VL: DIQMTQSPSSLSASVGDRVTITCRASQDVDTSLAWYQQKPGKAPKLLIYSASFLYSGVPSRFSGSGSGTDFTLTISSLQPEDFATYYCQQSTGHPQTFGQGTKVEIKR
B7: 184.6.58: anti-FGFR3 Ig-like domain 3 antibody of WO 2010/111367 A1 (aka R3Mab); SEQ ID NO: 65/66 (antibody, V domains shown)
VH: EVQLVESGGGLVQPGGSLRLSCAASGFTFTSTGISWVRQAPGKGLEWVARIYPTNGSTNYADSVKGRFTISADTSKNTAYLQMNSLRAEDTAVYYCARARTYGIYDLYVDYTEYVMDYWGQGTLV
VL: DIQMTQSPSSLSASVGDRVTITCRASQDVDISLAWYQQKPGKAPKLLIYSASFLYSGVPSRFSGSGSGTDFTLTISSLQPEDFATYYCQQGAGNPYTFGQGTKVEIKR
B8: 184.6.62: anti-FGFR3 Ig-like domain 3 antibody of WO 2010/111367 A1; SEQ ID NO: 67/68 (antibody, V domains shown)
VH: EVQLVESGGGLVQPGGSLRLSCAASGFTFSTTGISWVRQAPGKGLEWVARIYPLYGSTHYADSVKGRFTISADTSKNTAYLQMNSLRAEDTAVYYCARARTYGIYDLYVDYTEYVMDYWGQGTLV
VL: DIQMTQSPSSLSASVGDRVTITCRASQDVSTAVAWYQQKPGKAPKLLIYSASFLYSGVPSRFSGSGSGTDFTLTISSLQPEDFATYYCQQTYTTSLTFGQGTKVEIKR
B9: B-701: anti-FGFR3 antibody of WO 2016/134234 A1; SEQ ID NO: 70/71 (antibody, V domains shown)
VH: EVQLVESGGGLVQPGGSLRLSCAASGFTFTSTGISWVRQAPGKGLEWVGRIYPTSGSTNYADSVKGRFTISADTSKNTAYLQMNSLRAEDTAVYYCARTYGIYDLYVDYTEYVMDYWGQGTLV
VL: DIQMTQSPSSLSASVGDRVTITCRASQDVDTSLAWYKQKPGKAPKLLIYSASFLYSGVPSRFSGSGSGTDFTLTISSLQPEDFATYYCQQSTGHPQTFGQGTKVEIKR
B10: 184.6.1.NS D30E: anti-FGFR3 Ig-like domain 3 antibody of WO 2010/111367 A1; SEQ ID NO: 63/69 (antibody, V domains shown)
VH: EVQLVESGGGLVQPGGSLRLSCAASGFTFTSTGISWVRQAPGKGLEWVGRIYPTSGSTNYADSVKGRFTISADTSKNTAYLQMNSLRAEDTAVYYCARARTYGIYDLYVDYTEYVMDYWGQGTLV
VL: DIQMTQSPSSLSASVGDRVTITCRASQDVETSLAWYQQKPGKAPKLLIYSASFLYSGVPSRFSGSGSGTDFTLTISSLQPEDFATYYCQQSTGHPQTFGQGTKVEIKR
B11: KC18: anti-FGFR3 IIIb and IIIc antibody of WO 2022/040560 A1; SEQ ID NO: 72/73 (antibody, V domains shown)
VH: QVQLQQSGAELVRPGASVTLSCKASGDTFTDFEIHWVKQTPVHGLEWIGDIDPETGGTAYNQKFRGRAMLTADRSSSTAYMELRSLTSEDSAVYYCTRTYDGYPYAMDYWGQGTSVTVSS
VL: DIVMSQSPSSLAVSVGEKVTMSCKSSQSLLYSNNQKNYLAWYQQKPGQSPKLLIYWASTRESGVPDRFTGSGSGTDFTLTISSVKAEDLAVYYCQQYYSYRTFGGGTKLEIK
B12: KE63: anti-FGFR3 IIIb and IIIc antibody of WO 2022/040560 A1; SEQ ID NO: 80/81 (antibody, V domains shown)
VH: QVQLQQSGAELVRPGASVTLSCKASGSTFSDFEIHWVKQTPVHGLEWIGGIDPETGGTAYNQKFKGKAILTADRSSSTAYMELRSLTSEDSAVYYCTRNYDGYSQTMDYWGQGTSVTVSS
VL: NIMMTQSPSSLAVSAGEKVTMSCKSSQSVLYSSNQKNYLAWYQQKPGQSPKLLIYWASTRESGVPDRFTGSGSGTDFTLTISSVQAEDLAVYYCHQYLSSYTFGGGTKLEMK
B13: KE58: anti-FGFR3 IIIb and IIIc antibody of WO 2022/040560 A1; SEQ ID NO: 78/79 (antibody, V domains shown)
VH: EVQLQQSGPDLVKPGASVKISCKASGYTVTDYYMNWVKQSHGKSLEWIGDINPNNGVTTYNQKFKDKATLTVDKSSSTAYMELRSLTSEDSAVYYCAREEDFDGFDYWGQGTTLTVSS
VL: DIVMTQSHKFMSTSVGDRVSITCKASQDVSTGVAWYQQKPGQSPQLLIYWASTRHTGVPDRFTGSGSGTDYILTIRSVQAEDLALYYCQQHYSTPLTFGAGTKLELK
B14: FGA0005: anti-FGFR3 (S249C mutant) antibody of WO 2021/010326 A1; SEQ ID NO: 86/87 (antibody, V domains shown)
VH: QSLEESGGRLVTPGTPLTLTCTASGFSLSTYWICWVRQAPGEGLEWIGYISSSGNTYYASWAKGRFTISKTSSTTVDLKMTSLTTEDTATYFCGGHNSDYITGWALDPWGPGTLVTVSS
VL: AAVLTQTASPMSAAVGGTVTINCQSSKSVYRDKWLSWFQQKPGQPPKLLIYGASNLASGVSSRFKGSGSGTQFTLTISDVQCDDAATYYCLGGYSDNSEDAFGGGTEVVVK
B15: KE94: anti-FGFR3 IIIb and IIIc antibody of WO 2022/040560 A1; SEQ ID NO: 82/83 (antibody, V domains shown)
VH: QVQLQQSGAELVRPGASVTLSCKASGSTFTDFEIHWVKQTPVHGLEWIGAIDPETGGTAYNQKFKGKAILTAVKSSSTAYMGLRSLTSEDSAVYYCTRNYDGYSRTMDYWGQGTSVTVSS
VL: NIMMTQSPSSLAVSAGEKVTMSCKSSQSVLYSSNQKNYLAWYQQKPGQSPKLLIYWASTRESGVPDRFTGSGSGTDFSLSISSVQTEDLAVYYCHQYLSSYTFGGGTRLEMK
B16: MS-Pro-11: anti-FGFR3 Ig-like domain 3 antibody of WO 2002/102972 A2; SEQ ID NO: 30/31 (antibody, V domains shown)
VH: QVQLVQSGAEVKKPGASVKVSCKASGYTFTSYYMHWVRQAPGQGLEWMGWINPNSGGTNYAQKFQGRVTMTRDTSISTAYMELSSLRSEDTAVYYCARYYGSSLYHYVFGGFIDYWGQGTLVTVSS
VL: DIALTQPASVSGSPGQSITISCTGTSSDVGGYNYVSYQQHPGKAPKLMIYDVSNRPSGVSNRFSGSKSGNTASLTISGLQAEDEADYYCQSHHFYEVFGGGTKLTVLGQ

Test system: FGFR3
[1] = Table T-1, exemplary FGFR3 parental antibodies of cited publications
[2] = Exemplary FGFR3 D3 binding sequences, antibodies of cited PCT publications

Molecule	Activity [1]	Activity [2]
B1	Antagonistic	
B2	Antagonistic	
B3	Antagonistic	Antagonistic
B4	Antagonistic	Antagonistic
B5	Antagonistic	Antagonistic
B6	Antagonistic	Antagonistic
B7	Antagonistic	Antagonistic
B8	Antagonistic	Antagonistic
B9	Antagonistic	
B10	Antagonistic	Antagonistic
B11	Antagonistic	Antagonistic
B12	Antagonistic	Antagonistic
B13	Antagonistic	Antagonistic
B14	Antagonistic	
B15	Antagonistic	Antagonistic
B16	Antagonistic	Antagonistic
